The values below come from article PMC9963277 (Proceedings of the National Academy of Sciences of the …, 2023).

B1: E. coli ClpP (enzyme)
chain: not shown
B2: E. coli SspB (natural protein)
chain: MDLSQLTPRRPYLLRAFYEWLLDNQLTPHLVVDVTLPGVQVPMEYARDGQIVLNIAPRAVGNLELANDEVRFNARFGGIPRQVSVPLAAVLAIYARENGAGTMFEPEAAYDEDTSIMNDEEASADNETVMSVIDGDKPDHDDDTHPDDEPPQPPRGGRPALRVVK
B3: E. coli ClpX (containing a neutral K408E mutation) (enzyme)
chain: not shown

Data set [1] concerns the target B3. Nature of the data set: cryo-EM structure.
Data set [2] concerns the molecule itself. Put plainly: cryo-EM structure.

Take B1: the binding result in data set [1] and in data set [2] was “binds” each time.
For the molecule B2, the binding result in data set [1] is given as “binds”.
As for B3, the binding result in data set [2] is listed as “binds”.
